US20100196375A1
Substitutions are numbered along the chain they refer to.

B1: recombinant scFv3-18L (scFv)
scFv: QAVLTQPSSVSGSLGQRVSITCSGSSSNIGRYGVGWYQQVPGSGLRRIIYGSVSRPSGVPVRFSGSKSGDTATLTISSLQAEDEADYFCATADYTSSPVLFGSGTTLTVLGQSSRSSSGGGSSGGGGSQVQLRESGPSLVKPSQTLSLTCTVSGFSLSGNSVGWVRQTPGKALEWLGNMDGIGTTDYNPALKSRLSITKDNSKSQVSLSLSSVTTEDTATYYCAKCTGAYCWRFDDAYGYDDWGQGLLVTVSS
B2: recombinant scFv4m-18L (scFv)
scFv: B1 scFv with S118G, D217G
B3: recombinant scFv1-7L (scFv)
scFv: QAVLTQPSSVSGSLGQRVSITCSGSSSNIGRYGVGWYQQVPGSGLRRIIYGSVSRPSGVPVRFSGSKSGDTATLTISSLQAEDEADYFCATADYTSSPVLFGSGTTLTVLGQSSRSSQVQLRESGPSLVKPSQTLSLTCTVSGFSLSGNSVGWVRQTPGKALEWLGNMDGIGTTDYNPALKSRLSITKDNSKSQVSLSLSSVTTEDTATYYCAKCTGAYCWRFDDAYGYDDWGQGLLVTVSS

Biological target: BHV-1 virus (Cooper strain)
Experiment: cell-based or functional assay

Binder | 50% viral neutralization end point | Percent Plaque reduction at 11 µg/ml, Experiment I | Percent Plaque reduction at 11 µg/ml, Experiment II | Percent Plaque reduction at 33 µg/ml, Experiment I | Percent Plaque reduction at 33 µg/ml, Experiment II | Percent Plaque reduction at 99 µg/ml, Experiment I | Percent Plaque reduction at 99 µg/ml, Experiment II | Percent Plaque reduction at 15 µg/ml, Experiment I | Percent Plaque reduction at 15 µg/ml, Experiment II | Percent Plaque reduction at 45 µg/ml, Experiment I | Percent Plaque reduction at 45 µg/ml, Experiment II | Percent Plaque reduction at 135 µg/ml, Experiment I | Percent Plaque reduction at 135 µg/ml, Experiment II | fold higher protein concentration required for virus neutralization, compared with wild type scFv with either 7 or 18 amino acid linker | Percent plaque reduction at 24 µg/ml, Experiment I | Percent plaque reduction at 24 µg/ml, Experiment II | Percent plaque reduction at 72 µg/ml, Experiment I | Percent plaque reduction at 72 µg/ml, Experiment II | Percent plaque reduction at 216 µg/ml, Experiment I | Percent plaque reduction at 216 µg/ml, Experiment II
B1 | 5.5 µg/mL | 78.7% | 80% | 89.3% | 90.5% | 93.4% | 94.7% | – | – | – | – | – | – | – | – | – | – | – | – | –
B2 | 15 µg/mL | – | – | – | – | – | – | 55.8% | 48.5% | 67% | 70% | 92.4% | 92.6% | 2.7 to 5 fold | – | – | – | – | – | –
B3 | 3 µg/mL | – | – | – | – | – | – | – | – | – | – | – | – | – | 86.3% | 84.8% | 95.9% | 94.2% | 100% | 100%
